Four molecules from US20170190753A1 (LABORATOIRE FRANCAIS DU FRACTIONNEMENT ET DES …, published 2017) can be followed below.

This test deals with C3 convertase complex (UniProt P01024 23-1663; P00751 260-764). Description: cell-based or functional assay.
Wherever C3 convertase activity % of the control is given: test concentration or dose not given here.

Chain of C3 convertase complex (P01024 23-1663, chain 1 of 2): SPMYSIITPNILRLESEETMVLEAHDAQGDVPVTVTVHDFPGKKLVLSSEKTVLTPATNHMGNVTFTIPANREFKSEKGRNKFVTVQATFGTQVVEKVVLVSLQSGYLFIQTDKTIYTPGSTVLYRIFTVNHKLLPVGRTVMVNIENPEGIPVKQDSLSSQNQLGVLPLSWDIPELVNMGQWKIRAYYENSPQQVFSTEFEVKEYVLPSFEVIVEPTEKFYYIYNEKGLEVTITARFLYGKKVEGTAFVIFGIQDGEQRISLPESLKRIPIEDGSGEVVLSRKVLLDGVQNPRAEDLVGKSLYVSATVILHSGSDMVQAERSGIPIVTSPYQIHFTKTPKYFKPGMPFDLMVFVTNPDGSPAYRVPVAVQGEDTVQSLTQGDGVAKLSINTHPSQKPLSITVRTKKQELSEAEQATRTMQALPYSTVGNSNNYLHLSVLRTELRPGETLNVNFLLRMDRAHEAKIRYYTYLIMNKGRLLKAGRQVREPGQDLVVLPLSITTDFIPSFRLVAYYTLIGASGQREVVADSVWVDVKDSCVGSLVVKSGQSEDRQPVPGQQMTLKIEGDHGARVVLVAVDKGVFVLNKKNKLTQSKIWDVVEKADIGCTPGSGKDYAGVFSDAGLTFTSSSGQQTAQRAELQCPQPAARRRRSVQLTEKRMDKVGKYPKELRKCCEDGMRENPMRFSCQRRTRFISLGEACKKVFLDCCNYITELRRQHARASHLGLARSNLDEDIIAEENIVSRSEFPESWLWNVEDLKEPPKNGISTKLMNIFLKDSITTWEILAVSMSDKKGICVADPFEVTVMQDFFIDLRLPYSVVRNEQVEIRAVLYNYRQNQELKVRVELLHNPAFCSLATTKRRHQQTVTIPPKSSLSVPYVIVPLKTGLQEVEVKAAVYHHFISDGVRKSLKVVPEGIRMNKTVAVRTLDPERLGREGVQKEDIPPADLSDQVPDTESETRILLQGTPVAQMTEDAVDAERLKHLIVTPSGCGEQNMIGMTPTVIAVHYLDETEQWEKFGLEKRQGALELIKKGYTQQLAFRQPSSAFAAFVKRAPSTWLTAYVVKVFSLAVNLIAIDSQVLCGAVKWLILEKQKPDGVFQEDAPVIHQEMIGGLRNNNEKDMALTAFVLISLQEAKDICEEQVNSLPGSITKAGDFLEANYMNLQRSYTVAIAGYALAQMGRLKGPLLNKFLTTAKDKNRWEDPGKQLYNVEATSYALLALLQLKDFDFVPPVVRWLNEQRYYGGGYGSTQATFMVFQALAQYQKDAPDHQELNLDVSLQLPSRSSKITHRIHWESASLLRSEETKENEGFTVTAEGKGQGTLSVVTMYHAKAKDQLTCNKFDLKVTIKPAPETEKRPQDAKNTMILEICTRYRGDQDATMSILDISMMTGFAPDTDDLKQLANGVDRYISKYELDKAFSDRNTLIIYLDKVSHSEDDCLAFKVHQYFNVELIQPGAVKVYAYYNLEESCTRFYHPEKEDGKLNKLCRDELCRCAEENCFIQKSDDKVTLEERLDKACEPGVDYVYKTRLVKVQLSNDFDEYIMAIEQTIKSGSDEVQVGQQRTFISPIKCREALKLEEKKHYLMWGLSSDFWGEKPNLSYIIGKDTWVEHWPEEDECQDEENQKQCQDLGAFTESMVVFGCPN
Chain of C3 convertase complex (P00751 260-764, chain 2 of 2): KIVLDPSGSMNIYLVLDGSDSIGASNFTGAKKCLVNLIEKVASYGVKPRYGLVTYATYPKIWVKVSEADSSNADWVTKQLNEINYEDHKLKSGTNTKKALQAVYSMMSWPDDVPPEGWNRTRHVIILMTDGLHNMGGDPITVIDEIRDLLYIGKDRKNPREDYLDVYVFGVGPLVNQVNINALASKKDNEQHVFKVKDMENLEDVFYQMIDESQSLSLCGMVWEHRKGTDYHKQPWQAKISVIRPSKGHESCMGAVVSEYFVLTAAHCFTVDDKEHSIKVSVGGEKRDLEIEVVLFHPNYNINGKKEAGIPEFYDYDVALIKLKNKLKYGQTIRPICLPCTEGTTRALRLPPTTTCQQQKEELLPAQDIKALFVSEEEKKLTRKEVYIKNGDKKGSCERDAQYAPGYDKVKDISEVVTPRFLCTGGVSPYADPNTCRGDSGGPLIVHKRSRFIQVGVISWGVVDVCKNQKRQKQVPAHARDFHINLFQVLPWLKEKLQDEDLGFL

B1: pCEP4-1NT7-9CT20 (other)
chain: EDCNELPPRRNTEILTGSWSDQTYPEGTQAIYKCRPGYRSLGNVIMVCRKGEWVALNPLRKCQKRPCGHPGDTPFGTFTLTGGNVFEYGVKAVYTCNEGYQLLGEINYRECDTDGWTNDIPICEVVKCLPVTAPENGKIVSSAMEPDREYHFGQAVRFVCNSGYKIEGDEEMHCSDDGFWSKEKPKCVEISCKSPDVINGSPISQKIIYKENERFQYKCNMGYEYSERGDAVCTESGWRPLPSCEEKSCDNPYIPNGDYSPLRIKHRTGDEITYQCRNGFYPATRGNTAKCTSTGWIPAPRCTLKPCDYPDIKHGGLYHENMRRPYFPVAVGKYYSYYCDEHFETPSGSYWDHIHCTQDGWSPAVPCLRKCYFPYLENGYNQNYGRKFVQGKSIDVACHPGYALPKAQTTVTCMENGWSPTPRCIRVKTGASGCDIPVFMNARTKNDFTWFKLNDTLDYECHDGYESNTGSTTGSIVCGYNGWSDLPICYERECELPKIDVHLVPDRKKDQYKVGEVLKFSCKPGFTIVGPNSVQCYHFGLSPDLPICKEQVQSCGPPPELLNGNVKEKTKEEYGHSEVVEYYCNPRFLMKGPNKIQCVDGEWTTLPVCIVEESTCGDIPELEHGWAQLSSPPYYYGDSVEFNCSESFTMIGHRSITCIHGVWTQLPQCVAIDKLKKCKSSNLIILEEHLKNKKEFDHNSNIRYRCRGKEGWIHTVCINGRWDPEVNCSMAQIQLCPPPPQIPNSHNMTTTLNYRDGEKVSVLCQENYLIQEGEEITCKDGRWQSIPLCVEKIPCSQPPQIEHGTINSSRSSQESYAHGTKLSYTCEGGFRISEENETTCYMGKWSSPPQCEGLPCKSPPEISHGVVAHMSDSYQYGEEVTYKCFEGFGIDGPAIAKCLGEKWSHPPSCIKTDCLSLPSFENAIPMGEKKDVYKAGEQVTYTCATYYKMDGASNVTCINSRWTGRPTCRDTSCVNPPTVQNAYIVSRQMSKYPSGERVRYQCRSPYEMFGDEEVMCLNGNWTEPPQCKDSTGKCGPPPPIDNGDITSFPLSVYAPASSVEYQCQNLYQLEGNKRITCRNGQWSEPPKCLHPCVISREIMENYNIALRWTAKQKLYSRTGESVEFVCKRGYRLSSRSHTLRTTCWDGKLEYPTCAKRGGSGHHHHHH
For B1, the “C3 convertase activity % of the control” value was 156 % of the control and the “C3 convertase activity IC50” value was found to be 0.252 µg/mL.

B2: pCEP4-1NT9-13CT20 (other)
chain: EDCNELPPRRNTEILTGSWSDQTYPEGTQAIYKCRPGYRSLGNVIMVCRKGEWVALNPLRKCQKRPCGHPGDTPFGTFTLTGGNVFEYGVKAVYTCNEGYQLLGEINYRECDTDGWTNDIPICEVVKCLPVTAPENGKIVSSAMEPDREYHFGQAVRFVCNSGYKIEGDEEMHCSDDGFWSKEKPKCVEISCKSPDVINGSPISQKIIYKENERFQYKCNMGYEYSERGDAVCTESGWRPLPSCEEKSCDNPYIPNGDYSPLRIKHRTGDEITYQCRNGFYPATRGNTAKCTSTGWIPAPRCTLKPCDYPDIKHGGLYHENMRRPYFPVAVGKYYSYYCDEHFETPSGSYWDHIHCTQDGWSPAVPCLRKCYFPYLENGYNQNYGRKFVQGKSIDVACHPGYALPKAQTTVTCMENGWSPTPRCIRVKTCSKSSIDIENGFISESQYTYALKEKAKYQCKLGYVTADGETSGSITCGKDGWSAQPTCIKSCDIPVFMNARTKNDFTWFKLNDTLDYECHDGYESNTGSTTGSIVCGYNGWSDLPICYEREGASGCKSSNLIILEEHLKNKKEFDHNSNIRYRCRGKEGWIHTVCINGRWDPEVNCSMAQIQLCPPPPQIPNSHNMTTTLNYRDGEKVSVLCQENYLIQEGEEITCKDGRWQSIPLCVEKIPCSQPPQIEHGTINSSRSSQESYAHGTKLSYTCEGGFRISEENETTCYMGKWSSPPQCEGLPCKSPPEISHGVVAHMSDSYQYGEEVTYKCFEGFGIDGPAIAKCLGEKWSHPPSCIKTDCLSLPSFENAIPMGEKKDVYKAGEQVTYTCATYYKMDGASNVTCINSRWTGRPTCRDTSCVNPPTVQNAYIVSRQMSKYPSGERVRYQCRSPYEMFGDEEVMCLNGNWTEPPQCKDSTGKCGPPPPIDNGDITSFPLSVYAPASSVEYQCQNLYQLEGNKRITCRNGQWSEPPKCLHPCVISREIMENYNIALRWTAKQKLYSRTGESVEFVCKRGYRLSSRSHTLRTTCWDGKLEYPTCAKRGGSGHHHHHH
As to B2, the “C3 convertase activity % of the control” value was 56 % of the control and the “C3 convertase activity IC50” value was 0.166 µg/mL.

B3: pCEP4-1NT4-15CT20 (other)
chain: EDCNELPPRRNTEILTGSWSDQTYPEGTQAIYKCRPGYRSLGNVIMVCRKGEWVALNPLRKCQKRPCGHPGDTPFGTFTLTGGNVFEYGVKAVYTCNEGYQLLGEINYRECDTDGWTNDIPICEVVKCLPVTAPENGKIVSSAMEPDREYHFGQAVRFVCNSGYKIEGDEEMHCSDDGFWSKEKPKCVEISCKSPDVINGSPISQKIIYKENERFQYKCNMGYEYSERGDAVCTESGWRPLPSCEEKSGASGCSQPPQIEHGTINSSRSSQESYAHGTKLSYTCEGGFRISEENETTCYMGKWSSPPQCEGLPCKSPPEISHGVVAHMSDSYQYGEEVTYKCFEGFGIDGPAIAKCLGEKWSHPPSCIKTDCLSLPSFENAIPMGEKKDVYKAGEQVTYTCATYYKMDGASNVTCINSRWTGRPTCRDTSCVNPPTVQNAYIVSRQMSKYPSGERVRYQCRSPYEMFGDEEVMCLNGNWTEPPQCKDSTGKCGPPPPIDNGDITSFPLSVYAPASSVEYQCQNLYQLEGNKRITCRNGQWSEPPKCLHPCVISREIMENYNIALRWTAKQKLYSRTGESVEFVCKRGYRLSSRSHTLRTTCWDGKLEYPTCAKRGGSGHHHHHH
Take B3: the “C3 convertase activity % of the control” value was 58 % of the control and the “C3 convertase activity IC50” value is 0.206 µg/mL.

B4: pCEP4-1NT8-15CT20 (other)
chain: EDCNELPPRRNTEILTGSWSDQTYPEGTQAIYKCRPGYRSLGNVIMVCRKGEWVALNPLRKCQKRPCGHPGDTPFGTFTLTGGNVFEYGVKAVYTCNEGYQLLGEINYRECDTDGWTNDIPICEVVKCLPVTAPENGKIVSSAMEPDREYHFGQAVRFVCNSGYKIEGDEEMHCSDDGFWSKEKPKCVEISCKSPDVINGSPISQKIIYKENERFQYKCNMGYEYSERGDAVCTESGWRPLPSCEEKSCDNPYIPNGDYSPLRIKHRTGDEITYQCRNGFYPATRGNTAKCTSTGWIPAPRCTLKPCDYPDIKHGGLYHENMRRPYFPVAVGKYYSYYCDEHFETPSGSYWDHIHCTQDGWSPAVPCLRKCYFPYLENGYNQNYGRKFVQGKSIDVACHPGYALPKAQTTVTCMENGWSPTPRCIRVKTCSKSSIDIENGFISESQYTYALKEKAKYQCKLGYVTADGETSGSITCGKDGWSAQPTCIKSGASGCSQPPQIEHGTINSSRSSQESYAHGTKLSYTCEGGFRISEENETTCYMGKWSSPPQCEGLPCKSPPEISHGVVAHMSDSYQYGEEVTYKCFEGFGIDGPAIAKCLGEKWSHPPSCIKTDCLSLPSFENAIPMGEKKDVYKAGEQVTYTCATYYKMDGASNVTCINSRWTGRPTCRDTSCVNPPTVQNAYIVSRQMSKYPSGERVRYQCRSPYEMFGDEEVMCLNGNWTEPPQCKDSTGKCGPPPPIDNGDITSFPLSVYAPASSVEYQCQNLYQLEGNKRITCRNGQWSEPPKCLHPCVISREIMENYNIALRWTAKQKLYSRTGESVEFVCKRGYRLSSRSHTLRTTCWDGKLEYPTCAKRGGSGHHHHHH
With B4, the “C3 convertase activity % of the control” value was 58 % of the control and the “C3 convertase activity IC50” value was 0.628 µg/mL.
